The results in this text go back to ChEMBL document CHEMBL3508693.

Common to all, as to type: ADME, microsomes
Substrate in series [1]: COCCCOc1cc(C[C@@H](C[C@H](N)[C@@H](O)C[C@H](C(=O)NCC(C)(C)C(N)=O)C(C)C)C(C)C)ccc1OC
Briefly: Enzyme kinetics constant (Km value) for CYP4F2 was determined in human liver microsome incubated with [14C]SPP100 hemifumarate. A general note: Liver microsomes are a subcellular fraction often used to study metabolism.

Substrate in series [2]: COCCCOc1cc(C[C@@H](C[C@H](N)[C@@H](O)C[C@H](C(=O)NCC(C)(C)C(N)=O)C(C)C)C(C)C)ccc1OC
The series can be described thus: Enzyme kinetics constant (Km value) for CYP3A5 was determined in human liver microsome incubated with [14C]SPP100 hemifumarate.

Substrate in series [3]: COCCCOc1cc(C[C@@H](C[C@H](N)[C@@H](O)C[C@H](C(=O)NCC(C)(C)C(N)=O)C(C)C)C(C)C)ccc1OC
Briefly: Enzyme kinetics constant (Km value) for CYP4A11 was determined in human liver microsome incubated with [14C]SPP100 hemifumarate.

Substrate in series [4]: COCCCOc1cc(C[C@@H](C[C@H](N)[C@@H](O)C[C@H](C(=O)NCC(C)(C)C(N)=O)C(C)C)C(C)C)ccc1OC
The series can be described thus: Enzyme kinetics constant (Km value) for CYP3A7 was determined in human liver microsome incubated with [14C]SPP100 hemifumarate.

Substrate in series [5]: COCCCOc1cc(C[C@@H](C[C@H](N)[C@@H](O)C[C@H](C(=O)NCC(C)(C)C(N)=O)C(C)C)C(C)C)ccc1OC
Briefly: Enzyme kinetics constant (Km value) for CYP4F3B was determined in human liver microsome incubated with [14C]SPP100 hemifumarate.

Substrate in series [6]: COCCCOc1cc(C[C@@H](C[C@H](N)[C@@H](O)C[C@H](C(=O)NCC(C)(C)C(N)=O)C(C)C)C(C)C)ccc1OC
Briefly: Enzyme kinetics constant (Km value) for CYP2J2 was determined in human liver microsome incubated with [14C]SPP100 hemifumarate.

Substrate in series [7]: COCCCOc1cc(C[C@@H](C[C@H](N)[C@@H](O)C[C@H](C(=O)NCC(C)(C)C(N)=O)C(C)C)C(C)C)ccc1OC
The series can be described thus: Enzyme kinetics constant (Km value) for CYP2E1 was determined in human liver microsome incubated with [14C]SPP100 hemifumarate.

Substrate in series [8]: COCCCOc1cc(C[C@@H](C[C@H](N)[C@@H](O)C[C@H](C(=O)NCC(C)(C)C(N)=O)C(C)C)C(C)C)ccc1OC
Briefly: Enzyme kinetics constant (Km value) for CYP2D6 was determined in human liver microsome incubated with [14C]SPP100 hemifumarate.

Usually Km stands for the substrate concentration at which the rate is half of its maximum. In general, Vmax refers to the top rate of the reaction or transport when substrate is in excess.

B1: Cytochrome P450 4F2 (Homo sapiens) (protein)
chain: MSQLSLSWLGLWPVAASPWLLLLLVGASWLLAHVLAWTYAFYDNCRRLRCFPQPPRRNWFWGHQGMVNPTEEGMRVLTQLVATYPQGFKVWMGPISPLLSLCHPDIIRSVINASAAIAPKDKFFYSFLEPWLGDGLLLSAGDKWSRHRRMLTPAFHFNILKPYMKIFNESVNIMHAKWQLLASEGSACLDMFEHISLMTLDSLQKCVFSFDSHCQEKPSEYIAAILELSALVSKRHHEILLHIDFLYYLTPDGQRFRRACRLVHDFTDAVIQERRRTLPSQGVDDFLQAKAKSKTLDFIDVLLLSKDEDGKKLSDEDIRAEADTFMFEGHDTTASGLSWVLYHLAKHPEYQERCRQEVQELLKDREPKEIEWDDLAHLPFLTMCMKESLRLHPPVPVISRHVTQDIVLPDGRVIPKGIICLISVFGTHHNPAVWPDPEVYDPFRFDPENIKERSPLAFIPFSAGPRNCIGQTFAMAEMKVVLALTLLRFRVLPDHTEPRRKPELVLRAEGGLWLRVEPLS
In the case of B1, in series [1], the Km was determined as 11.3 µM and the Vmax was found to be 8.91e-05 µmol/min/mg.

B2: Cytochrome P450 3A5 (Homo sapiens) (protein)
chain: MDLIPNLAVETWLLLAVSLVLLYLYGTRTHGLFKRLGIPGPTPLPLLGNVLSYRQGLWKFDTECYKKYGKMWGTYEGQLPVLAITDPDVIRTVLVKECYSVFTNRRSLGPVGFMKSAISLAEDEEWKRIRSLLSPTFTSGKLKEMFPIIAQYGDVLVRNLRREAEKGKPVTLKDIFGAYSMDVITGTSFGVNIDSLNNPQDPFVESTKKFLKFGFLDPLFLSIILFPFLTPVFEALNVSLFPKDTINFLSKSVNRMKKSRLNDKQKHRLDFLQLMIDSQNSKETESHKALSDLELAAQSIIFIFAGYETTSSVLSFTLYELATHPDVQQKLQKEIDAVLPNKAPPTYDAVVQMEYLDMVVNETLRLFPVAIRLERTCKKDVEINGVFIPKGSMVVIPTYALHHDPKYWTEPEEFRPERFSKKKDSIDPYIYTPFGTGPRNCIGMRFALMNMKLALIRVLQNFSFKPCKETQIPLKLDTQGLLQPEKPIVLKVDSRDGTLSGE
In the case of B2, in series [2], the Km is 28.7 µM and the Vmax was found to be 0.00135 µmol/min/mg.

B3: Cytochrome P450 4A11 (Homo sapiens) (protein)
chain: MSVSVLSPSRLLGDVSGILQAASLLILLLLLIKAVQLYLHRQWLLKALQQFPCPPSHWLFGHIQELQQDQELQRIQKWVETFPSACPHWLWGGKVRVQLYDPDYMKVILGRSDPKSHGSYRFLAPWIGYGLLLLNGQTWFQHRRMLTPAFHYDILKPYVGLMADSVRVMLDKWEELLGQDSPLEVFQHVSLMTLDTIMKCAFSHQGSIQVDRNSQSYIQAISDLNNLVFSRVRNAFHQNDTIYSLTSAGRWTHRACQLAHQHTDQVIQLRKAQLQKEGELEKIKRKRHLDFLDILLLAKMENGSILSDKDLRAEVDTFMFEGHDTTASGISWILYALATHPKHQERCREEIHSLLGDGASITWNHLDQMPYTTMCIKEALRLYPPVPGIGRELSTPVTFPDGRSLPKGIMVLLSIYGLHHNPKVWPNPEVFDPFRFAPGSAQHSHAFLPFSGGSRNCIGKQFAMNELKVATALTLLRFELLPDPTRIPIPIARLVLKSKNGIHLRLRRLPNPCEDKDQL
On to B3, for which, in series [3], the Km came to 3.1 µM and the Vmax worked out at 1.55e-05 µmol/min/mg.

B4: Cytochrome P450 3A7 (Homo sapiens) (protein)
chain: MDLIPNLAVETWLLLAVSLILLYLYGTRTHGLFKKLGIPGPTPLPFLGNALSFRKGYWTFDMECYKKYRKVWGIYDCQQPMLAITDPDMIKTVLVKECYSVFTNRRPFGPVGFMKNAISIAEDEEWKRIRSLLSPTFTSGKLKEMVPIIAQYGDVLVRNLRREAETGKPVTLKHVFGAYSMDVITSTSFGVSIDSLNNPQDPFVENTKKLLRFNPLDPFVLSIKVFPFLTPILEALNITVFPRKVISFLTKSVKQIKEGRLKETQKHRVDFLQLMIDSQNSKDSETHKALSDLELMAQSIIFIFAGYETTSSVLSFIIYELATHPDVQQKVQKEIDTVLPNKAPPTYDTVLQLEYLDMVVNETLRLFPVAMRLERVCKKDVEINGMFIPKGVVVMIPSYVLHHDPKYWTEPEKFLPERFSKKNKDNIDPYIYTPFGSGPRNCIGMRFALVNMKLALVRVLQNFSFKPCKETQIPLKLRFGGLLLTEKPIVLKAESRDETVSGA
Consider B4, for which, in series [4], the Km was 32.6 µM and the Vmax is 0.000113 µmol/min/mg.

B5: Cytochrome P450 4F3 (Homo sapiens) (protein)
chain: MPQLSLSSLGLWPMAASPWLLLLLVGASWLLARILAWTYTFYDNCCRLRCFPQPPKRNWFLGHLGLIHSSEEGLLYTQSLACTFGDMCCWWVGPWHAIVRIFHPTYIKPVLFAPAAIVPKDKVFYSFLKPWLGDGLLLSAGEKWSRHRRMLTPAFHFNILKPYMKIFNESVNIMHAKWQLLASEGSARLDMFEHISLMTLDSLQKCVFSFDSHCQEKPSEYIAAILELSALVTKRHQQILLYIDFLYYLTPDGQRFRRACRLVHDFTDAVIQERRRTLPSQGVDDFLQAKAKSKTLDFIDVLLLSKDEDGKKLSDEDIRAEADTFMFEGHDTTASGLSWVLYHLAKHPEYQERCRQEVQELLKDREPKEIEWDDLAQLPFLTMCIKESLRLHPPVPAVSRCCTQDIVLPDGRVIPKGIICLISVFGTHHNPAVWPDPEVYDPFRFDPKNIKERSPLAFIPFSAGPRNCIGQAFAMAEMKVVLGLTLLRFRVLPDHTEPRRKPELVLRAEGGLWLRVEPLS
B5: in series [5], the Km amounted to 5 µM and the maximal velocity (Vmax) was found to be 0.000121 µmol/min/mg.

B6: Cytochrome P450 2J2 (Homo sapiens) (protein)
chain: MLAAMGSLAAALWAVVHPRTLLLGTVAFLLAADFLKRRRPKNYPPGPWRLPFLGNFFLVDFEQSHLEVQLFVKKYGNLFSLELGDISAVLITGLPLIKEALIHMDQNFGNRPVTPMREHIFKKNGLIMSSGQAWKEQRRFTLTALRNFGLGKKSLEERIQEEAQHLTEAIKEENGQPFDPHFKINNAVSNIICSITFGERFEYQDSWFQQLLKLLDEVTYLEASKTCQLYNVFPWIMKFLPGPHQTLFSNWKKLKLFVSHMIDKHRKDWNPAETRDFIDAYLKEMSKHTGNPTSSFHEENLICSTLDLFFAGTETTSTTLRWALLYMALYPEIQEKVQAEIDRVIGQGQQPSTAARESMPYTNAVIHEVQRMGNIIPLNVPREVTVDTTLAGYHLPKGTMILTNLTALHRDPTEWATPDTFNPDHFLENGQFKKREAFMPFSIGKRACLGEQLARTELFIFFTSLMQKFTFRPPNNEKLSLKFRMGITISPVSHRLCAVPQV
With B6, in series [6], the Km came out at 67 µM and the Vmax stood at 0.000604 µmol/min/mg.

B7: Cytochrome P450 2E1 (Homo sapiens) (protein)
chain: MSALGVTVALLVWAAFLLLVSMWRQVHSSWNLPPGPFPLPIIGNLFQLELKNIPKSFTRLAQRFGPVFTLYVGSQRMVVMHGYKAVKEALLDYKDEFSGRGDLPAFHAHRDRGIIFNNGPTWKDIRRFSLTTLRNYGMGKQGNESRIQREAHFLLEALRKTQGQPFDPTFLIGCAPCNVIADILFRKHFDYNDEKFLRLMYLFNENFHLLSTPWLQLYNNFPSFLHYLPGSHRKVIKNVAEVKEYVSERVKEHHQSLDPNCPRDLTDCLLVEMEKEKHSAERLYTMDGITVTVADLFFAGTETTSTTLRYGLLILMKYPEIEEKLHEEIDRVIGPSRIPAIKDRQEMPYMDAVVHEIQRFITLVPSNLPHEATRDTIFRGYLIPKGTVVVPTLDSVLYDNQEFPDPEKFKPEHFLNENGKFKYSDYFKPFSTGKRVCAGEGLARMELFLLLCAILQHFNLKPLVDPKDIDLSPIHIGFGCIPPRYKLCVIPRS
On to B7, for which, in series [7], the Km worked out at 31.9 µM and the Vmax was determined as 4.62e-05 µmol/min/mg.

B8: Cytochrome P450 2D6 (Homo sapiens) (protein)
chain: MGLEALVPLAVIVAIFLLLVDLMHRRQRWAARYPPGPLPLPGLGNLLHVDFQNTPYCFDQLRRRFGDVFSLQLAWTPVVVLNGLAAVREALVTHGEDTADRPPVPITQILGFGPRSQGVFLARYGPAWREQRRFSVSTLRNLGLGKKSLEQWVTEEAACLCAAFANHSGRPFRPNGLLDKAVSNVIASLTCGRRFEYDDPRFLRLLDLAQEGLKEESGFLREVLNAVPVLLHIPALAGKVLRFQKAFLTQLDELLTEHRMTWDPAQPPRDLTEAFLAEMEKAKGNPESSFNDENLRIVVADLFSAGMVTTSTTLAWGLLLMILHPDVQRRVQQEIDDVIGQVRRPEMGDQAHMPYTTAVIHEVQRFGDIVPLGVTHMTSRDIEVQGFRIPKGTTLITNLSSVLKDEAVWEKPFRFHPEHFLDAQGHFVKPEAFLPFSAGRRACLGEPLARMELFLFFTSLLQHFSFSVPTGQPRPSHHGVFAFLVSPSPYELCAVPR
As for B8, in series [8], the Km was 73.6 µM and the Vmax turned out to be 0.00548 µmol/min/mg.
